Results reported in PMC11101478, “Structural mechanism of bacteriophage lambda tail’s interaction with the bacterial receptor” (Nature Communications, 2024).

B1: gpJ (bacteriophage lambda tip protein, in the purified tail) (natural protein)
chain: MGKGSSKGHTPREAKDNLKSTQLLSVIDAISEGPIEGPVDGLKSVLLNSTPVLDTEGNTNISGVTVVFRAGEQEQTPPEGFESSGSETVLGTEVKYDTPITRTITSANIDRLRFTFGVQALVETTSKGDRNPSEVRLLVQIQRNGGWVTEKDITIKGKTTSQYLASVVMGNLPPRPFNIRMRRMTPDSTTDQLQNKTLWSSYTEIIDVKQCYPNTALVGVQVDSEQFGSQQVSRNYHLRGRILQVPSNYNPQTRQYSGIWDGTFKPAYSNNMAWCLWDMLTHPRYGMGKRLGAADVDKWALYVIGQYCDQSVPDGFGGTEPRITCNAYLTTQRKAWDVLSDFCSAMRCMPVWNGQTLTFVQDRPSDKTWTYNRSNVVMPDDGAPFRYSFSALKDRHNAVEVNWIDPNNGWETATELVEDTQAIARYGRNVTKMDAFGCTSRGQAHRAGLWLIKTELLETQTVDFSVGAEGLRHVPGDVIEICDDDYAGISTGGRVLAVNSQTRTLTLDREITLPSSGTALISLVDGSGNPVSVEVQSVTDGVKVKVSRVPDGVAEYSVWELKLPTLRQRLFRCVSIRENDDGTYAITAVQHVPEKEAIVDNGAHFDGEQSGTVNGVTPPAVQHLTAEVTADSGEYQVLARWDTPKVVKGVSFLLRLTVTADDGSERLVSTARTTETTYRFTQLALGNYRLTVRAVNAWGQQGDPASVSFRIAAPAAPSRIELTPGYFQITATPHLAVYDPTVQFEFWFSEKQIADIRQVETSTRYLGTALYWIAASINIKPGHDYYFYIRSVNTVGKSAFVEAVGRASDDAEGYLDFFKGKITESHLGKELLEKVELTEDNASRLEEFSKEWKDASDKWNAMWAVKIEQTKDGKHYVAGIGLSMEDTEEGKLSQFLVAANRIAFIDPANGNETPMFVAQGNQIFMNDVFLKRLTAPTITSGGNPPAFSLTPDGKLTAKNADISGSVNANSGTLSNVTIAENCTINGTLRAEKIVGDIVKAASAAFPRQRESSVDWPSGTRTVTVTDDHPFDRQIVVLPLTFRGSKRTVSGRTTYSMCYLKVLMNGAVIYDGAANEAVQVFSRIVDMPAGRGNVILTFTLTSTRHSADIPPYTFASDVQVMVIKKQALGISVV
notes: Tip protein gpJ of bacteriophage lambda, 1132 residues: hub domains (HDII-ins1, HDII-ins2, HDII, HDIII, HDIV, OB), FNIII-1, FNIII-2, AHS, CSF, RBD; also called baseplate hub protein; central tail fiber protein; source: E. coli BL21 (DE3) pLysS, as part of the purified lambda tail
B2: gpL (bacteriophage lambda, in the purified tail) (natural protein)
chain: MQDIRQETLNECTRAEQSASVVLWEIDLTEVGGERYFFCNEQNEKGEPVTWQGRQYQPYPIQGSGFELNGKGTSTRPTLTVSNLYGMVTGMAEDMQSLVGGTVVRRKVYARFLDAVNFVNGNSYADPEQEVISRWRIEQCSELSAVSASFVLSTPTETDGAVFPGRIMLANTCTWTYRGDECGYSGPAVADEYDQPTSDITKDKCSKCLSGCKFRNNVGNFGGFLSINKLSQ
notes: gpL of bacteriophage lambda; consists of HDI and 4Fe-4S domains; Three units in the tail tip; also called baseplate hub protein; source: E. coli BL21 (DE3) pLysS, as part of the purified lambda tail
B3: gpI (bacteriophage lambda, in the purified tail) (natural protein)
chain: MAATHTLPLASPGMARICLYGDLQRFGRRIDLRVKTGAEAIRALATQLPAFRQKLSDGWYQVRIAGRDVSTSGLTAQLHETLPDGAVIHIVPRVAGAKSGGVFQIVLGAAAIAGSFFTAGATLAAWGAAIGAGGMTGILFSLGASMVLGGVAQMLAPKARTPRIQTTDNGKQNTYFSSLDNMVAQGNVLPVLYGEMRVGSRVVSQEISTADEGDGGQVVVIGR
notes: gpI of bacteriophage lambda: unresolved N-terminal domain, helices H1 and H2, plug domain (159-175), beta-strands joined by loops; in the open structure only residues from 167 onward are seen; Three units in the tail tip; source: E. coli BL21 (DE3) pLysS, as part of the purified lambda tail
B4: gpM (bacteriophage lambda tail protein, in the purified tail) (natural protein)
chain: MKTFRWKVKPGMDVASVPSVRKVRFGDGYSQRAPAGLNANLKTYSVTLSVPREEATVLESFLEEHGGWKSFLWTPPYEWRQIKVTCAKWSSRVSMLRVEFSAEFEQVVN
notes: Tail protein gpM of bacteriophage lambda; also called gpM ring; gpM hexamer; source: E. coli BL21 (DE3) pLysS, as part of the purified lambda tail
B5: Shigella sonnei 3070 LamB (receptor, UniProt Q3YUU9 26-446, looked up)
chain: VDFHGYARSGIGWTGSGGEQQCFQTTGAQSKYRLGNECETYAELKLGQEVWKEGDKSFYFDTNVAYSVAQQNDWEATDPAFREANVQGKNLIEWLPGSTIWAGKRFYQRHDVHMIDFYYWDISGPGAGLENIDVGFGKLSLAATRSSEAGGSSSFASNNIYDYTNETANDVFDVRLAQMEINPGGTLELGVDYGRANLRDNYRLVDGASKDGWLFTAEHTQSVLKGFNKFVVQYATDSMTSQGKGLSQGSGVAFDNEKFAYNINNNGHMLRILDHGAISMGDNWDMMYVGMYQDINWDNDNGTKWWTVGIRPMYKWTPIMSTVMEIGYDNVESQRTGDKNNQYKITLAQQWQAGDSIWSRPAIRVFATYAKWDEKWGYDYNGDSKVNPNYGKAVPADFNGGSFGRGDSDEWTFGAQMEIWW
notes: LamB (maltoporin) of Shigella sonnei 3070; own N-terminal signal peptide replaced by the OMPG signal peptide, Twin-Strep-tag after the signal peptide; differs from E. coli LamB in seven amino acids within the 381-390 region; Used in 0.02% DDM for BLI and for the gpJ713 complex, and in an MSP2N2 nanodisc (E. coli polar lipids) for the tail complex; also called ssLamB; LamB from Shigella sonnei …
B6: gpJ713 (C-terminal truncation of bacteriophage lambda gpJ, starting from residue 713) (domain or fragment, UniProt P03749 713-1132, looked up)
chain: APAAPSRIELTPGYFQITATPHLAVYDPTVQFEFWFSEKQIADIRQVETSTRYLGTALYWIAASINIKPGHDYYFYIRSVNTVGKSAFVEAVGRASDDAEGYLDFFKGKITESHLGKELLEKVELTEDNASRLEEFSKEWKDASDKWNAMWAVKIEQTKDGKHYVAGIGLSMEDTEEGKLSQFLVAANRIAFIDPANGNETPMFVAQGNQIFMNDVFLKRLTAPTITSGGNPPAFSLTPDGKLTAKNADISGSVNANSGTLSNVTIAENCTINGTLRAEKIVGDIVKAASAAFPRQRESSVDWPSGTRTVTVTDDHPFDRQIVVLPLTFRGSKRTVSGRTTYSMCYLKVLMNGAVIYDGAANEAVQVFSRIVDMPAGRGNVILTFTLTSTRHSADIPPYTFASDVQVMVIKKQALGISVV
notes: holds FNIIIs, AHS, CSF and RBD; Trimer (C3 symmetry in the closed state map); also called central tail fiber; His-tagged gpJ713; source: E. coli BL21 (DE3), purified (nickel gravity column, gel filtration); not shown: 6xHis, N-terminal, kept

Assays:
[1] = target: the molecule itself; experiment: cryo-EM structure; purified lambda tail mixed with ssLamB in MSP2N2 nanodisc, room temperature 50 min, nickel column and Superose 6 Increase; open state of the tail
[2] = target: B1; experiment: as above; settings: both partners purified
[3] = target: B2; experiment: as above; settings: both partners purified
[4] = target: the molecule itself; experiment: cryo-EM structure; gpJ713 alone, closed state; C3 symmetry; map at 2.76 A
E. coli LamB = target: T1, E. coli LamB (E. coli, UniProt P02943 26-446); experiment: BLI; His-tagged gpJ713 (2 ug/mL) captured on Ni-NTA sensors; five concentrations of Twin-Strep-tagged LamB in lysis buffer with 0.02% DDM; dissociation in the same buffer; settings: both partners purified
T1 construct: LamB (maltoporin) of E. coli; own N-terminal signal peptide replaced by the OMPG signal peptide, Twin-Strep-tag after the signal peptide; also called ecLamB; E. coli's LamB; source: E. coli BL21 (DE3), isolated from the outer membrane in DDM, purified (Strep-Tactin XT, gel filtration); not shown: Twin-Strep-tag, N-terminal, kept

E. coli LamB A384S = target: T2, E. coli LamB A384S (E. coli, UniProt P02943 26-446, A384S); experiment: as above; settings: both partners purified
T2 construct: LamB (maltoporin) of E. coli with the single-point mutation A384S; the text says A384S; also called ecLamB A384S; source: E. coli BL21 (DE3), isolated from the outer membrane in DDM, purified (Strep-Tactin XT, gel filtration); not shown: Twin-Strep-tag, N-terminal, kept

Binder	stoichiometry N [1]	binding result [2]	other results
B1	3	–	–
B2	–	binds	–
B3	–	binds	–
B4	6	binds	binding result [3]: binds
B5	3	–	–
B6	–	–	stoichiometry N [4]: 3; Kd (E. coli LamB): 1.76 nM; binding result (E. coli LamB A384S): binds
